Reference: the DeepSol protein solubility set

Test: soluble on expression in E. coli; label from the status in PepcDB or PDB records

Sequence | soluble on expression in E. coli
MKEKIPFYNEKEFNEMMKKTKKGTFSGWYIINPENKSVEFSGNFNRQFKLNKPVIPVNTEYVTRKEFNEYKDSNDQRLTKIENKVDKLEVKVDKLEEKVDKLEAKVDKLEEKVDKLEAKVDKLEEKVDKLEAKVDSGFEMLAKILAAINKRLDSIEGRLDKIEPPKLEHHHHHH | not soluble
MPGAMHDEPDHPELSITVPTLNEAEGLERFFAMLSAQQGVRFELVIADGGSTDGTPESARRLAAATPFAATVIETGRGRGRQMNAGAAAAAGDTLLFLHADCAFPDPLALRTALDAFTQTVAAGGSHRVAGHFRLRFERTDSAPSLPYYFYEWKARLHRPGCTHGDQGLLLGRRFFAEAGPFDESFPILEDVGLAERIAALGEWLLLPAEIVTSARRFEAEGLRERQTLNALLMNFAAMGWDPFLAELPRLYQSQDRAGRLLLGPVLRLIARLLRPLPRRERGRLWRETGRYVRANAWQIPFFLDVRRHFRQGTPVGEGETPRLDLHDRIFDRLTENGAGHRATALLVWIWFRLSLLREPLTPPAARNPEGNGSLEHHHHHH | soluble
MAHHHHHHMEPDDGVASWMELREEGNKAFKSEAYANAVKLYSEAIKLNSKEAALFSNRSAAYIKMKEYQKAVLDAEAAIANDKTFVKGYSRLHNALCHLGRFREATQKLKEALVVLEACGASPEDKKQIQELHRTAEEGQRGFEAGQRLLEERNFLAAERELVKAAQLFPDCAIVGIMLGESQASLYPERVIRSLTALSSAHADDTYYLYVRALASYYSGQSGLNNAQSILRHTIELDPDNRKATELLKKIRAVESQKTEGNAAFKEKRFTAAVNCYKAAIEVDPSNIRMTAVLRGNQAAAKMELKEYSSALLDCDFAIKNGAESAKLYARRSRIHEALENYDDALRDIQRAAEMDPSYNGEAQQMKISAKRAKRKDYYKILGLPQGESDDSSIKRAYKKGCLQWHPDKWAHATEEEKAHAEKMFKEVGEAFSILSDPQKKRLYDSGQLDDASSPGGTSDFPARQADIFQMMNMMFQGGCGEGGMPSGFSFTVDPRSRRQKQTFHYR | soluble
MSLDTPDYKRVVLKLSGEALAGNDGFGINPSVVNLISAQIKEVVELGVEVAIVVGGGNIWRGKLGSEMGMDRAAADQMGMLATIMNSLSLQDSLENIGVATRVQTSIDMRQIAEPYIRRKAIRHLEKGRVVIFAGGTGNPYFSTDTAAALRAAEIEADVILMAKNNVDGVYNADPKLDENAKKYEELSYLDVIKEGLEVMDTTASSLSMDNDIPLIVFSFTEQGNNIKRVILGEKIGTTVRGKKEGHHHHHH | soluble
MAHHHHHHMHIGLAAAVPSPTTAPQWLQDIENQLLIRNAIELKPSQSIFDSYTTLHVSVLHLQTVEDERQRLRMERSRLTERVRELEQAAANSSLQTSYERELEAKKDALQDQLRVYMQRESDYYKALSEVKAVQEERDMLRLRSNKLDAELEQRTAELQLLHKEYTALRDEYDRVRLTVSEADRYLREVKTAKEKTVQLQHRIVTLEDEVNMLRRQLQEALKGETAAAVDKAKRANPNKDGEDAEVAPSPMHTTHSPHTDPCTTLSPNPLGAEPSHASMVISEAHTSSTLHGLCVLDDGKRFLTSGADKHIRLWNRQSPQAEKYFSSSSIALALDTSSHYLLAGCADHVVRFWDVNSLRVLEMTGHTEKVVAACLSSSAQHAFTASSDSTIKLWDVRRRESLRTLLCQSTCNDVTVAGDTVFSAHYNGKITVWDRRTATRSGEVVAHQRVATCVRVSANGQLCVSMGKDNVISVRDARVFTKTLFSVAPVQLVVMMNWARLSIAPSGQLCAVGSGRTSDLLLIRLHGGGQGDAEATDSASSPALVKVLKACVSNATSYGDQGSGSSKGPIFSTAWGASEGGPLVSISNDRCVQVWE | not soluble
GPGSMDVARTMRATAGGKAFAVVAAEQTAGRGTGGRTWTSPKGNLYMTVGVPQLGQPPCLKEELVPVLPLICGLACRRAVLEVLHLDGALAKASVAADAAKAVATKWPNDIIYNHKKIGGTLIESDGDYLIIGIGMNIAVAPQMTDAGREATMINTIAEDFGVKSCPPRDLANAIWCHLFDICSSPEWTRELVIESFDKVMDKSLKLHKRLPGGRDPEELTAVSLNSWGHLKVRHADGTVEDLSAEYLF | not soluble
MRAPRWLWLVILLSGSAAADWREVLPNAQVVGGGELTLFGFRVYTARLLSPAKPFVADAPMALELTYHRNIDREDLVDASIDEIKRISGARVTTEQLAAWREQMNQSFVDVQPGMKITGVYLPGREARFYVGDKLQHVVPDSQFAKAFFSIWLDPKTRNPELREQLLGSTGS | not soluble
MKAQVEYIILPFKKRLDGFTYWQRELEPAIHPALKAYVKAENATGGVSSVMIFWEIARNTDHFCSDFKTDRDVRMFLTLYFWKYLCYFANIDFYTGQDKTEEILKGEAD | not soluble
GPGSMYVLYCCTMQGYSQLSGSSSDENIVHPLSSDGNTVTISPTYTLRMHFLPQHQVAKGAEKNNQIELSVAPTDALIINFPEGTEGSETEVMEQLIGTGRWQWVVPMRPFDGYDSTRSYRLKARRFPVAAGDDSNELTPPTIVHVPNISSIIEAGMRVSNRSQSGLHRSRGGVVCFVVGADPSVVRVPEGKKLLEQLFSEVGRSTISTATLGLRQLHNANWALFISPCRTNKLFAWKERLPSSSVSSGSLWWLCAAADVLLEINTAAEWVTAHFD | not soluble
MSLQSKTAKLPDNDRNRPLIQTFNDAQQKVWFDDALLHEDPSQCCNPEFWQQNGKVLGSATGRGTTWFVQLQQTQGALRHYRRGGLFGKLVADSYWFTGWEKTRSYQEFMLLNHLRDAGVNVPRPIAARVQKHGLLYKADLLSEKVPNARDLVSILQESPISDELYRKIGREIRKMHDAQVNHTDLNIHNILIDDQEKVWIIDFDKCYVQIGDSWKQGNLKRLKRSFEKEVCKRGINWSLEAFAIISSYKHEEEGHHHHHH | soluble
MSYSDLLRELAAAHAISSSYSGFGGAHVEVSDDTLVKTLRSLGVCFGNEDEPATDHEPLTGPMPSEDQIRYALQQRYDAEATRPLPRCVVAVEGDPYVFNVHVHDGAPADITITLEDGSTAEVTQVENWAPPREVDGITWGEASFQLPSDLPLG | not soluble
MSPIDQVLAAACALDASGKAPSLALIKSRLGNKFPMPILIQGLQQFKSMPKAERERLAALSIPEVEEQKPTEPVPLSVTTLAAQLTELQKGFEQAIALKNTEIMQLTNELIELKQRVNQLELQGKSV | soluble
MTTMPQRESTIAVPDDRRKQLGAFLRARRESLDPQRLGLPRVGRRRTPGLRREEVAMLADVGVTWYTWLEQGREVNPSEAVLVGVANALQCSPLETRHLFVLAGLTPPEATQVTVCEGISPGTRRMLDSLMPQPASIQKPNFDIVAWNDSFCRLMGIDFATLPEEDRNCIYLYLTHETWRSRIENRDVLPTFVSYFRAAMAEHRGDPAWENKLARFFAASSEFEALWHQRYEVRGVENQIKHFNHPQLGRFSLQQMYWYSAPRNGSRLLVYLPMDEAGEQALAWLDQH | not soluble
MEIARKVMEEFLEIWNEALAKRSLPGKFVNKDLNFGEFGLGDNYTPQHTAVRNYALVMAHMIATVQAVSG | not soluble
MSLNEHDIYMQDFMTVFASLQHWGPGSEQDSLKAISLMSMQNMQHILDIGCETGLSTLLLAENSSAHITAVDNEPIAIEQLEKQRQHSPWKEQISPVLGSMTALPFAAKSFDAIWAEGCVYIMGMENALKQWKPFLADNAILMVSDLVWLTENPKPEAQEFWQSEYPDIQSIPSRIKLFKKLGYEVMEHFSLGIDAWQNYWLPLQNRVQELKLRLTNSQALSDIEKEIAIYERSAAKDFTYQYFVLKLNHEGHHHHHH | not soluble
MGSDKIHHHHHHMNNLPLLDNNWNTDLYEDKHAFVWQYGENLLKVLNPKLGESILDLGCGTGQLTEKIAQAGAEVTGIDRASSMIETARQNYPHLRFDVADARDFQVLKPLDAVFSNAVLHWIKEADAAIASIHQALKPGGRFVAEFGGKGNIQAIVTALYSALEAIAISPQALNPWYFPSIGEYATLLEQQGFDVTYATLFARPTPLTEGEAGMANWLEMFADVFLAGLSADQKIQIIRTVEEHLLPTLYQQGNWTADYRRIRIVAIKL | not soluble
SDDKAFTKELDQWVEQLNECKQLNENQVRTLCEKAKEILTKESNVQEVRCPVTVCGDVHGQFHDLMELFRIGGKSPDTNYLFMGDYVDRGYYSVETVTLLVALKVRYPERITILRGNHESRQITQVYGFYDECLRKYGNANVWKYFTDLFDYLPLTALVDGQIFCLHGGLSPSIDTLDHISPRGAGYTFGQDISETFNHANGLTLVSRAHQLVMEGYNWCHDRNVVTIFSAPNYCYRCGNQAAIMELDDTLKYSFLQFDPAPRRGEPHVTRRTPDYFL | soluble
NLSVYNVQATNIPPKETLVYTKQTQTT | soluble
MAHHHHHHMSVCARALWQRSRLLCRCLIMCPTPLSTARWRAGHGWLSRKRGDAEAPPSRERRRHPHANTRHSHAHMMALTLDPRWNAMRRGIAGIGVCAVDGRGGAAAPGSCRLSLCSCLSPASSGGCGGADSALSEGGHCRECVCGMRGRLPSPKKPWNSLAGVLVGVRVTHAASVLEDRPVALGRLVSRLSEAAYKAEMLRTGKRDRDGEDRRGDAAQLLVVDAGTRVTVRTEGDPASGAAVAPSAMHMKGTIAKVNGNATYIILMEKGEVELSVASERIVALQPRKKLFQSARLVALV | soluble
SDRLIDKMAGEERQKIELWAQATKIVASDDEAVLAKDLVLQIIQSNNSIPVILCDPKDSIISYNNIDIPAGKPALPYLQKKLRYFKEGYPPIRIEIEARRPQFLYYSDSQTLRR | not soluble
MAQMYFYYSAMNAGKSTTLLQSSFNYQERGMTPVIFTAALDDRYGVGKVSSRIGLQSDAHLFRPDTNLYQEIAALHEVEKRHCILIDECQFLSKEQVYQLTEVVDKLHIPVLCYGLRTDFLGELFEGSKYLLSWADKLVELKTICHCGRKANMVIRTDEHGVAIKEGDQVAIGGNDRYVSVCRQHYKEALGKLEHHHHHH | soluble
MKSDDLERLEESQEMQQLIHAAKEQYEQEKSVHPPVAYAAFAQNLRERQKDGKMKAKQEPPERETFEVKGGKRSGISPWWLVAACLLGGIIGYGISTTSDRQEAGLERLAVADTVIVVRERVDTVYREVEVPSQPLVASRSTVKSKSTGLTKEHVKQSRKAVQKAEPAFISIEFLQQQQNLPDPNSECYAANGMTVAEGNYPFHLLATVPCK | not soluble
MKKETKPRVVVIGGGTGLPVILKGLKKKDIHLTAIVTVADDGGSSGKIREQMDVLPPGDIRNVMLALSNVDPRVVDLFQYRFAVDGDLSGHVIGNLILTALSQLNDSYVDAINVLATVLKIRGKVIPATDQPLILNAEMEDGSIVHGESLIPLQGKHINRVYIEPENVKPYPTAVEAVKEADLIVIGPGSLYTSILPNLLLTELADEITASKAPKVYITNILTQIGETDFFSDADHIKVIHEHVGKSFIDKTLINTTTVPKELLFPEDVAQVEHNAKGMEELGVEAIYQDFLSTEDGLVRHAAEKVADALLAMLPNQTNEKELEHHHHHH | soluble
MLFDLDGTVWEGGRALPFAVDSINQVNLPLMYVTNNASRGPEVVASLLSDMGIFTQPEQVLTSAQAAIDLALKEVPVGSNVLVLGTDSFKSLAAEAGYMVVNSADMEPVAVFHGHNPATSWTELSEAALAIRCGAKYYASNLDTTLPSERGLCVGNGSMVAAVVSATGVQPVSAGKPEAAMFHVAAEKLASERPLAVGDRLNTDIAGGVAAGFDTLHLLTGVSQHWALVHAIESERPTLIAEDLRALSSDRSVLMPQLQGDFNAYLQGTEIVLNGGSTASTSTEALRSVLSVAWQSAEFGGTVKPVSEHAIRCMSEWR | not soluble
